Experimental data: publication PMC3223204, “Implantation Serine Proteinase 1 Exhibits Mixed Substrate Specificity that Silences Signaling via Proteinase-Activated Receptors” (PLoS ONE, 2011)

Target: T1, human PAR4 (Homo sapiens, UniProt Q96RI0, INS25FLNCCPGCCMEP)
T1 construct: expressed in transfected cells; host or cells: COS-1
T1 sequence (Q96RI0 with tags, fused parts or gaps): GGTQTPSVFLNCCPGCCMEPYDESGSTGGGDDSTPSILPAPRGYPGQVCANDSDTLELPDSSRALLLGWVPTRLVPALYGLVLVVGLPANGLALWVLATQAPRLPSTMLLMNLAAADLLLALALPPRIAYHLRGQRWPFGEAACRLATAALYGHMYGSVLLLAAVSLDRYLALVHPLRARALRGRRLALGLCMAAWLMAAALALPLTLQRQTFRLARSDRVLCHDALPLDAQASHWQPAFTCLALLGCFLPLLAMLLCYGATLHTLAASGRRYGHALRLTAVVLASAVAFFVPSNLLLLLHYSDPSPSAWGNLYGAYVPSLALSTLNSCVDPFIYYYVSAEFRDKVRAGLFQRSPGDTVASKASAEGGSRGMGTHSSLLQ
Experiment: Release of N-terminal BAB motif from PAR4 on COS-1 cells
Assay type: cell-based
Conditions: 0.1 and 0.5 units per ml, 37°C, 30 minutes
Source text: The biarsenical fluorochrome binding domain (BAB), containing a tetra-cysteine motif, […] for PAR1, […] for PAR2 and […] for PAR4 was inserted into the receptor N-terminal domains by introducing corresponding oligonucleotides just downstream of the signal peptide of PARs, after A26 for human PAR1, Q27 for human PAR2 and V25 for human PAR4. The PAR DNA constructs containing the N-terminal BAB domain and a YFP C-terminal fluorochrome tag were cloned in pCDNA3.1+ at the restriction enzyme sites between Eco RI and Xba I. COS-1 cells obtained from ATCC (Manassas, VA USA) were transected with the PAR constructs with the FuGENE6 transfection reagent (Roche Applied Bioscience). The expression level of the expressed receptor was quantified using a fluorescence plate reader, (Victor 4X, Perkin-Elmer), and confocal microscopy was used to monitor the receptor location by visualizing the receptor YFP tag. […] Then, the peptide(s) containing the receptor BAB tetracysteine motif released by proteinases from the receptor N-terminus into the cell culture supernatant was quantified using a Victor X4 fluorescent plate reader with an excitation wavelength of 540 nm and an emission wavelength monitored at 615 nm. […]

B1: ISP1: recombinant implantation serine proteinase 1 expressed in Pichia pastoris, also known as Mouse Prss28 (protein, UniProt Q924N9 27-274, looked up)
Serine protease 28: KPVGIVGGQRTPPGKWPWQVSLRMYSYEVNSWVHICGGSIIHPQWILTAAHCIQSQDADPAVYRVQVGEVYLYKEQELLNISRIIIHPDYNDVSKRFDLALMQLTALLVTSTNVSPVSLPKDSSTFDSTDQCWLVGWGNLLQRVPLQPPYQLHEVKIPIQDNKSCKRAYRKKSSDEHKAVAIFDDMLCAGTSGRGPCFGDSGGPLVCWKSNKWIQVGVVSKGIDCSNNLPSIFSRVQSSLAWIHQHIQ
modifications: recombinant, Pichia pastoris-expressed
notes: recombinant implantation serine proteinase 1 expressed in Pichia pastoris, also known as Mouse Prss28
Release of PAR4 N-terminal BAB domain (PAR cleavage activity): significant concentration-dependent PAR cleavage activity
